How the values were obtained:
Experiment in all cases: flow cytometry, alanine scan
human CD33 G318A = human CD33 G318A (human, UniProt P20138 18-364)
human CD33 P319A = human CD33 P319A (human, UniProt P20138 18-364)
human CD33 T320A = human CD33 T320A (human, UniProt P20138 18-364)
human CD33 E321A = human CD33 E321A (human, UniProt P20138 18-364)
human CD33 T322A = human CD33 T322A (human, UniProt P20138 18-364)
human CD33 S323A = human CD33 S323A (human, UniProt P20138 18-364)
human CD33 S324A = human CD33 S324A (human, UniProt P20138 18-364)
human CD33 C325A = human CD33 C325A (human, UniProt P20138 18-364)
human CD33 S326A = human CD33 S326A (human, UniProt P20138 18-364)
human CD33 G327A = human CD33 G327A (human, UniProt P20138 18-364)
human CD33 A328S = human CD33 A328S (human, UniProt P20138 18-364)
human CD33 A329S = human CD33 A329S (human, UniProt P20138 18-364)
human CD33 P330A = human CD33 P330A (human, UniProt P20138 18-364)
human CD33 T331A = human CD33 T331A (human, UniProt P20138 18-364)
human CD33 V332A = human CD33 V332A (human, UniProt P20138 18-364)
human CD33 E333A = human CD33 E333A (human, UniProt P20138 18-364)
human CD33 M334A = human CD33 M334A (human, UniProt P20138 18-364)
human CD33 D335A = human CD33 D335A (human, UniProt P20138 18-364)
human CD33 E336A = human CD33 E336A (human, UniProt P20138 18-364)
human CD33 E337A = human CD33 E337A (human, UniProt P20138 18-364)
human CD33 L338A = human CD33 L338A (human, UniProt P20138 18-364)
human CD33 H339A = human CD33 H339A (human, UniProt P20138 18-364)
human CD33 Y340A = human CD33 Y340A (human, UniProt P20138 18-364)
human CD33 A341S = human CD33 A341S (human, UniProt P20138 18-364)
human CD33 S342A = human CD33 S342A (human, UniProt P20138 18-364)
human CD33 L343A = human CD33 L343A (human, UniProt P20138 18-364)
human CD33 N344A = human CD33 N344A (human, UniProt P20138 18-364)
human CD33 F345A = human CD33 F345A (human, UniProt P20138 18-364)
human CD33 H346A = human CD33 H346A (human, UniProt P20138 18-364)
human CD33 G347A = human CD33 G347A (human, UniProt P20138 18-364)
human CD33 M348A = human CD33 M348A (human, UniProt P20138 18-364)
human CD33 N349A = human CD33 N349A (human, UniProt P20138 18-364)
human CD33 P350A = human CD33 P350A (human, UniProt P20138 18-364)
human CD33 S351A = human CD33 S351A (human, UniProt P20138 18-364)
human CD33 K352A = human CD33 K352A (human, UniProt P20138 18-364)
human CD33 D353A = human CD33 D353A (human, UniProt P20138 18-364)
human CD33 T354A = human CD33 T354A (human, UniProt P20138 18-364)
human CD33 S355A = human CD33 S355A (human, UniProt P20138 18-364)
human CD33 T356A = human CD33 T356A (human, UniProt P20138 18-364)
human CD33 E357A = human CD33 E357A (human, UniProt P20138 18-364)
human CD33 Y358A = human CD33 Y358A (human, UniProt P20138 18-364)
human CD33 S359A = human CD33 S359A (human, UniProt P20138 18-364)
human CD33 E360A = human CD33 E360A (human, UniProt P20138 18-364)
human CD33 V361A = human CD33 V361A (human, UniProt P20138 18-364)
human CD33 R362A = human CD33 R362A (human, UniProt P20138 18-364)
human CD33 T363A = human CD33 T363A (human, UniProt P20138 18-364)
human CD33 Q364A = human CD33 Q364A (human, UniProt P20138 18-363)

Sequence of human CD33 S359A (P20138 18-364 S359A limits assumed): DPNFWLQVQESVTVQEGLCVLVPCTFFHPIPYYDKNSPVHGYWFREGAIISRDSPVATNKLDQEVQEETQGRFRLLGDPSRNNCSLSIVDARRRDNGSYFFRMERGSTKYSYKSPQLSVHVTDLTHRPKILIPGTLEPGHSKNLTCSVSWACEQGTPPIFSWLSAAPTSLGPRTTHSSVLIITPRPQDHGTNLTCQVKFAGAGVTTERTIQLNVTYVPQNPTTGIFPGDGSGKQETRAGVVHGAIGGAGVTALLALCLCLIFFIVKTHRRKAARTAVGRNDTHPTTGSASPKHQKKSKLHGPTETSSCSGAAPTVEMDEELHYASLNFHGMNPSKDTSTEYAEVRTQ
Sequence of human CD33 V361A (P20138 18-364 V361A limits assumed): as the sequence (P20138 18-364 S359A limits assumed) above, with A342S, V344A counted along it
Sequence of human CD33 S351A (P20138 18-364 S351A limits assumed): as the sequence (P20138 18-364 S359A limits assumed) above, with S334A, A342S counted along it
Sequence of human CD33 A341S (P20138 18-364 A341S limits assumed): as the sequence (P20138 18-364 S359A limits assumed) above, with A324S, A342S counted along it
Sequence of human CD33 R362A (P20138 18-364 R362A limits assumed): as the sequence (P20138 18-364 S359A limits assumed) above, with A342S, R345A counted along it
Sequence of human CD33 E337A (P20138 18-364 E337A limits assumed): as the sequence (P20138 18-364 S359A limits assumed) above, with E320A, A342S counted along it
Sequence of human CD33 M334A (P20138 18-364 M334A limits assumed): as the sequence (P20138 18-364 S359A limits assumed) above, with M317A, A342S counted along it
Sequence of human CD33 D335A (P20138 18-364 D335A limits assumed): as the sequence (P20138 18-364 S359A limits assumed) above, with D318A, A342S counted along it
Sequence of human CD33 N349A (P20138 18-364 N349A limits assumed): as the sequence (P20138 18-364 S359A limits assumed) above, with N332A, A342S counted along it
Sequence of human CD33 P319A (P20138 18-364 P319A limits assumed): as the sequence (P20138 18-364 S359A limits assumed) above, with P302A, A342S counted along it
Sequence of human CD33 S326A (P20138 18-364 S326A limits assumed): as the sequence (P20138 18-364 S359A limits assumed) above, with S309A, A342S counted along it
Sequence of human CD33 P330A (P20138 18-364 P330A limits assumed): as the sequence (P20138 18-364 S359A limits assumed) above, with P313A, A342S counted along it
Sequence of human CD33 T322A (P20138 18-364 T322A limits assumed): as the sequence (P20138 18-364 S359A limits assumed) above, with T305A, A342S counted along it
Sequence of human CD33 H339A (P20138 18-364 H339A limits assumed): as the sequence (P20138 18-364 S359A limits assumed) above, with H322A, A342S counted along it

B1: Refmab #1 (antibody, V domains shown)
VH: EVQLVQSGAEVKKPGSSVKVSCKASGYTITDSNIHWVRQAPGQSLEWIGYIYPYNGGTDYNQKFKNRATLTVDNPTNTAYMELSSLRSEDTAFYYCVNGNPWLAYWGQGTLVTVSS
VL: DIQLTQSPSTLSASVGDRVTITCRASESLDNYGIRFLTWFQQKPGKAPKLLMYAASNQGSGVPSRFSGSGSGTEFTLTISSLQPDDFATYYCQQTKEVPWSFGQGTKVEVK
notes: The alanine scan used IgG or Fab; also called hP67.6
Human CD33 G318A
  Mean % WT Binding: 98.5 % of WT
Human CD33 P319A
  Mean % WT Binding: 83.9 % of WT
Human CD33 T320A
  Mean % WT Binding: 98.5 % of WT
Human CD33 E321A
  Mean % WT Binding: 88.3 % of WT
Human CD33 T322A
  Mean % WT Binding: 104 % of WT
Human CD33 S323A
  Mean % WT Binding: 95.2 % of WT
Human CD33 S324A
  Mean % WT Binding: 97.8 % of WT
Human CD33 C325A
  Mean % WT Binding: 80.1 % of WT
Human CD33 S326A
  Mean % WT Binding: 85.6 % of WT
Human CD33 G327A
  Mean % WT Binding: 88 % of WT
Human CD33 A328S
  Mean % WT Binding: 86.5 % of WT
Human CD33 A329S
  Mean % WT Binding: 88.1 % of WT
Human CD33 P330A
  Mean % WT Binding: 98.6 % of WT
Human CD33 T331A
  Mean % WT Binding: 87.4 % of WT
Human CD33 V332A
  Mean % WT Binding: 107 % of WT
Human CD33 E333A
  Mean % WT Binding: 77.9 % of WT
Human CD33 M334A
  Mean % WT Binding: 94.6 % of WT
Human CD33 D335A
  Mean % WT Binding: 77.8 % of WT
Human CD33 E336A
  Mean % WT Binding: 82.8 % of WT
Human CD33 E337A
  Mean % WT Binding: 91.1 % of WT
Human CD33 L338A
  Mean % WT Binding: 83.1 % of WT
Human CD33 H339A
  Mean % WT Binding: 76.7 % of WT
Human CD33 Y340A
  Mean % WT Binding: 91.1 % of WT
Human CD33 A341S
  Mean % WT Binding: 86.8 % of WT
Human CD33 S342A
  Mean % WT Binding: 79.5 % of WT
Human CD33 L343A
  Mean % WT Binding: 88.5 % of WT
Human CD33 N344A
  Mean % WT Binding: 72.1 % of WT
Human CD33 F345A
  Mean % WT Binding: 97.8 % of WT
Human CD33 H346A
  Mean % WT Binding: 81.8 % of WT
Human CD33 G347A
  Mean % WT Binding: 85.1 % of WT
Human CD33 M348A
  Mean % WT Binding: 83.3 % of WT
Human CD33 N349A
  Mean % WT Binding: 92.3 % of WT
Human CD33 P350A
  Mean % WT Binding: 99 % of WT
Human CD33 S351A
  Mean % WT Binding: 102 % of WT
Human CD33 K352A
  Mean % WT Binding: 95.3 % of WT
Human CD33 D353A
  Mean % WT Binding: 94.7 % of WT
Human CD33 T354A
  Mean % WT Binding: 91.8 % of WT
Human CD33 S355A
  Mean % WT Binding: 86.1 % of WT
Human CD33 T356A
  Mean % WT Binding: 93.5 % of WT
Human CD33 E357A
  Mean % WT Binding: 98.7 % of WT
Human CD33 Y358A
  Mean % WT Binding: 76.1 % of WT
Human CD33 S359A
  Mean % WT Binding: 95.8 % of WT
Human CD33 E360A
  Mean % WT Binding: 73.7 % of WT
Human CD33 V361A
  Mean % WT Binding: 88.8 % of WT
Human CD33 R362A
  Mean % WT Binding: 104 % of WT
Human CD33 T363A
  Mean % WT Binding: 91.4 % of WT
Human CD33 Q364A
  Mean % WT Binding: 72 % of WT
